# Reference: article PMC12578939
# Target: microtubules polymerised from bovine brain tubulin (bovine) (UniProt Q6B856)
# Experiment: TIRF microscopy of binding to immobilised microtubules
substance,measurement,value
augmin octamer lacking the N-terminal MTBR of Haus8 (residues 1-154) (from UniProt Q0IHJ3;Q6DCY9) (complex),reduction in MT binding against wildtype augmin,50%
